These results are taken from PMC9138245.

This assay has as its target HA-ezrin fused protein (human (cDNA from HEK293T cells)) (UniProt P15311).
UniProt P15311, sequence (P15311 whole entry, the tested form may be a part): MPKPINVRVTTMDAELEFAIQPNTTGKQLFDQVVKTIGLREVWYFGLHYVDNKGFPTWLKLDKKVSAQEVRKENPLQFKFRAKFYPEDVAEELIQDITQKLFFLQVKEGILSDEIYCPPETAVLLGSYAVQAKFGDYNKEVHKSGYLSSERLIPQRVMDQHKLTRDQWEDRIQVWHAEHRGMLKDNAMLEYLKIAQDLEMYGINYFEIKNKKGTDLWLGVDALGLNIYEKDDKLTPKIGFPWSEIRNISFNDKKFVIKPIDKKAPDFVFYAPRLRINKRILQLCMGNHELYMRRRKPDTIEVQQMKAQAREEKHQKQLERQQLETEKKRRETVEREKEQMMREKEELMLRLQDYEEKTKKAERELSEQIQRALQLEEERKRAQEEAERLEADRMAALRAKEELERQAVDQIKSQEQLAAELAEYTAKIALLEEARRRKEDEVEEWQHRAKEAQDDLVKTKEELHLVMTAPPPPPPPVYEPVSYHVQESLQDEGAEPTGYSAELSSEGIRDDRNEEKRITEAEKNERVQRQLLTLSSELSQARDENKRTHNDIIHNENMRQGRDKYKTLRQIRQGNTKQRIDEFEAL

For the substance “GFP-BifA fused protein (natural protein)”, the ratio of p-ezrin/total-ezrin in dHL60 cells under BifA treatment (10 μg/mL purified BifA), phos-tag gel and immunoblot, 0 to 2 h (ratio p-ezrin/total-ezrin) worked out at 1.
